Test results published in patent US20220396819A1, “METHOD FOR PRODUCING PEPTIDE HAVING PHYSIOLOGICAL ACTIVITY, AND PEPTIDE COMPRISING SHORT LINKER” (priority 2019, published 2022).
Positions of bridges follow the written chain, without caps; N, C: chain ends. No end group written: not given here.

Columns and labels:
[1] = target: T1, FGFR (Homo sapiens, UniProt P11362); test: FGFR inhibitory activity, SRE luciferase assay in HEK293E cells stimulated with bFGF; format: cell-based; conditions: peptide at 10 μM, 0 to 10 ng/mL bFGF, FIG. 3
T1 construct: endogenous in cells; host or cells: HEK293E
T1 sequence (P11362 22-822): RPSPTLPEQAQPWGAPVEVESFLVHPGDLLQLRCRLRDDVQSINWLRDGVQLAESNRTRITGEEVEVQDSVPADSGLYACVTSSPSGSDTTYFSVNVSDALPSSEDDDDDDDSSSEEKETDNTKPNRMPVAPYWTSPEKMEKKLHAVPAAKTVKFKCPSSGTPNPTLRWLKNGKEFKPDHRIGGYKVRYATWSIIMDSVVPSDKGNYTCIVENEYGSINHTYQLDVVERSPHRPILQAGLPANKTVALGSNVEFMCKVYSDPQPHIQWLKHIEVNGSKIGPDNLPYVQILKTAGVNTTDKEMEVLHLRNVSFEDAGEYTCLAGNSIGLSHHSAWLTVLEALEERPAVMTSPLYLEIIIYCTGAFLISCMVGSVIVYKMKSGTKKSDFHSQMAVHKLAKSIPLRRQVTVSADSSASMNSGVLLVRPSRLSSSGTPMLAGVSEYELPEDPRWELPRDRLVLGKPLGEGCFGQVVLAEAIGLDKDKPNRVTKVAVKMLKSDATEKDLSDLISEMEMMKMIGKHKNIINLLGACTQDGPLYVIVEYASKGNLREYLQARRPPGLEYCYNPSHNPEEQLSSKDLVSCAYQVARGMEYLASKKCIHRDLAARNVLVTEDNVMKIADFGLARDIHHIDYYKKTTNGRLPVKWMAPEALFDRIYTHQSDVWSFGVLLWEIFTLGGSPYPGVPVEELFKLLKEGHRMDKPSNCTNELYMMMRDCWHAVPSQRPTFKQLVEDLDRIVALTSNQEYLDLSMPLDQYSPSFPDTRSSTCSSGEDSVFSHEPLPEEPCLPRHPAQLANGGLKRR
Procedure: The inhibitory activity of the FBP monomer peptide chemically synthesized with the FBP-PAS dimer peptide on FGFR was evaluated by luciferase assay. To 25 μL of Opti-MEM medium (Thermo Fisher Scientific), 0.6 μL of Attractene Transfection Reagent (QIAGEN) was added, and the mixture was incubated at room temperature for 5 minutes. To the above mixed solution, a mixed solution of 25 μL of Opti-MEM and 1 μL of SRE reporter vector (QIAGEN) was added, and the mixture was incubated at room temperature for 20 minutes. This mixed solution was added to a 96-well plate, over which 40,000 cell/well HEK293E cells were seeded and incubated overnight in a 5% CO2 incubator at 37° C. […]
The signal intensities were detected using Dual-Luciferase Reporter Assay System (Promega). […] The luminescence of Firefly luciferase emitted from the cell lysate solution was detected with a plate reader to quantify the activation of the FGFR-Erk-SRE pathway. Subsequently, 50 μL of Glo & Stop reagent solution was added, and after 10 minutes, the luminescence of the internal standard Renilla luciferase was detected to quantify the number of cells. The signal activity of each sample was quantified as SRE activity=(Firefly luciferase luminescence intensity)/(Renilla luciferase luminescence intensity). […]

[2] = tested on: HEL cells; test: Thrombopoietin-like activity, tyrosine phosphorylation levels in HEL cells (dot blot); format: cell-based, human
Procedure: The thrombopoietin-like activity of the TPO-PAS dimer peptide was evaluated by quantification of tyrosine phosphorylation levels in HEL cells, a human leukemia-derived blood cell line. 200,000 HEL cells were cultured in RPMI 1640 medium without FBS (Thermo Fisher Scientific) for 24 hours and starved. The cells were stimulated for 20 minutes in RPMI 1640 medium supplemented with 10 to 100 ng/mL recombinant human TPO (rhTPO, Peprotech) or a culture supernatant containing AET-TPO1-PAS8, TPO2-PAS8, or AET-TPO2-PAS8 at a predetermined dilution factor. As a negative control, PBS (Mock group) or a supernatant expressing no peptide (Empty group) by using an empty vector was added, and stimulation was performed for 20 minutes. After removing the medium and washing the cells once with PBS, the cells were lysed by adding 100 μL of Lysis buffer 17 (R&D Systems) supplemented with Protease inhibitor cocktail (Nacalai Tesque). The lysate solution was centrifuged at 14,000 G for 5 minutes to obtain the supernatant as lysate.
APVDF membrane (Immobilon-P membrane 0.45 m, Merck) was treated with methanol for 1 minute and then with ultrapure water for 5 minutes for hydrophilic treatment. The PVDF membrane was dried, and each cell lysate solution was spotted with a 1 μL pipette and dried. The PVDF membrane was blocked with PVDF Blocking Reagent for Can Get Signal (NOF) at room temperature for 1 hour, and then Can Get Signal Solution 2 (NOF), supplemented with anti-pY antibody-[…] conjugate (Cell Signaling Technology) at 1:5000, was added, followed by an antibody reaction at 4° C. for 24 hours. The membrane was washed 3 times with TBST buffer, Luminata Crescendo Western HRP Substrate (Merck) was added, and a chemiluminescence reaction was carried out. Chemiluminescence was detected using Amersham Imager 600 (GE Healthcare). The luminescence intensity of the detected dots was quantified by ImageJ.

[3] = tested on: HEL cells; test: Signal characteristics, Proteome Profiler Human Phospho-Kinase Array Kit, HEL cells; format: cell-based; conditions: 100 ng/mL rhTPO or culture supernatant 1/100 to 1/1000, 20 minutes, FIG. 43
Procedure: The signal characteristics of the TPO-PAS dimer peptide were evaluated using Proteome Profiler Human Phospho-Kinase Array Kit (R&D Systems).
1,000,000 HEL cells were cultured in RPMI 1640 medium without FBS (Thermo Fisher Scientific) for 24 hours and starved. The cells were stimulated for 20 minutes in RPMI 1640 medium supplemented with 100 ng/mL recombinant human TPO (rhTPO, Peprotech) or a culture supernatant containing TPO2-PAS8 at a dilution of 1/100 to 1/1000. As a negative control, PBS was added, and stimulation was performed for 20 minutes (Mock group). After removing the medium and washing the cells once with PBS, the cells were lysed by adding 200 μL of Lysis buffer 17 (R&D Systems) supplemented with Protease inhibitor cocktail (Nacalai Tesque). The lysate solution was centrifuged at 14,000 G for 5 minutes to obtain the supernatant as lysate.
The lysate was analyzed using Proteome Profiler Human Phospho-Kinase Array Kit. Amersham Imager 600 (GE Healthcare) was used to detect chemiluminescence. The chemiluminescence intensity of the dots was quantified using ImageJ. […] The signal pathway stimulated by rhTPO is mainly the JAK2/Stat3,5 pathway, and all of the proteins with increased phosphorylation levels are included in the pathway.

[4] = target: Met (HGF receptor) (UniProt P08581); test: cell-based or functional assay
Chain of Met (HGF receptor) (P08581 25-1390 limits assumed): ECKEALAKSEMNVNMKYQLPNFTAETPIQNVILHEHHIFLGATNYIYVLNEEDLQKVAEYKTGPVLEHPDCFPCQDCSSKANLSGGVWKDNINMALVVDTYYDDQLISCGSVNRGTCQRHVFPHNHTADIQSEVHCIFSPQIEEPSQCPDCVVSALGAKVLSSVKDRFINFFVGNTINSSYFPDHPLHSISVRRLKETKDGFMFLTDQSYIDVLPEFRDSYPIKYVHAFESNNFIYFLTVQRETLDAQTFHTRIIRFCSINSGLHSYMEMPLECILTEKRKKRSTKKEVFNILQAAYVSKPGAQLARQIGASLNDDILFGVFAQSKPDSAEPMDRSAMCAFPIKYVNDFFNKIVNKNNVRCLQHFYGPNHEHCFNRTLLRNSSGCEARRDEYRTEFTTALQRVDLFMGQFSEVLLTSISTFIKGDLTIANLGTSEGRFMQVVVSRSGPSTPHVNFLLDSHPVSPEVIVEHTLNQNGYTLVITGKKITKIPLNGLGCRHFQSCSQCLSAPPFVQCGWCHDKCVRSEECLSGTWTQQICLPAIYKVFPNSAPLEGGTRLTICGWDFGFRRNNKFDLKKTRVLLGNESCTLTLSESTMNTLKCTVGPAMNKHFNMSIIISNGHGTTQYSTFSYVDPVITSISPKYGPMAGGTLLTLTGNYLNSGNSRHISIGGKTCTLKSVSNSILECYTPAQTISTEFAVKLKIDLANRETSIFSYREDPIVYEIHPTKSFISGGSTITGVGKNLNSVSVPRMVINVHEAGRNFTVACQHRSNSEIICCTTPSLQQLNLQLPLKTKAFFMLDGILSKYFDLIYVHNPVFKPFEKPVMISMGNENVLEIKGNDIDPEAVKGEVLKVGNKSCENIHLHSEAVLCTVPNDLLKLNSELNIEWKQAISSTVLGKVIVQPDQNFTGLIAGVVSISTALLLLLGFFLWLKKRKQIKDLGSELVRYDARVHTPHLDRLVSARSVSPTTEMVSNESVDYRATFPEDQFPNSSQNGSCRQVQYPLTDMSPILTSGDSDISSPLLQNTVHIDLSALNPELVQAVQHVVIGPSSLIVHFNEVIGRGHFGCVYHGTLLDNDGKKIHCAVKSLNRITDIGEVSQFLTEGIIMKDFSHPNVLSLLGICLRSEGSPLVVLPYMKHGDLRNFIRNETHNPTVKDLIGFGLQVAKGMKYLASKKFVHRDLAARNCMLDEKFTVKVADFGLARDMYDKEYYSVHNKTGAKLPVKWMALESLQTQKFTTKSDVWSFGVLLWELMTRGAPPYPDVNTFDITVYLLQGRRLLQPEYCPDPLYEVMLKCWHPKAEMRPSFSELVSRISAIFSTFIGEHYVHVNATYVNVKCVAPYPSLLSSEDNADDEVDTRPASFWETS

[5] = tested on: HEL cells; test: Thrombopoietin-like activity, CREB phosphorylation levels in HEL cells (Phospho-CREB (Ser133) ELISA); format: cell-based, human; conditions: dimer peptide 20-40 ng/mL or rhTPO 100 ng/mL, 20 minutes, Mock = PBS, FIG. 90
Procedure: The thrombopoietin-like activity of the TPO-PAS dimer peptide variant was evaluated by quantification of CREB phosphorylation levels in HEL cells, a human leukemia-derived blood cell line. 200,000 HEL cells were cultured in RPMI 1640 medium without FBS (Thermo Fisher Scientific) for 24 hours and starved. The cells were stimulated for 20 minutes in RPMI 1640 medium supplemented with 100 ng/mL recombinant human TPO (rhTPO, Peprotech) or a culture supernatant containing each dimer peptide of TPO2-PAS8, TPO2-PAS49, TPO2-PAS100, or TPO2-GS8 diluted to a final concentration of 20-40 ng/mL. As a negative control, PBS was added, and stimulation was performed for 20 minutes (Mock group). After removing the medium and washing the cells once with PBS, the cells were lysed by adding 100 μL of Lysis buffer 17 (R&D Systems) supplemented with Protease inhibitor cocktail (Nacalai Tesque). The lysate solution was centrifuged at 14,000 G for 5 minutes to obtain the supernatant as lysate. Note that TPO2-PAS8 was obtained according to the method described in Example 23.
Phospho-CREB (Ser133) and Total CREB ELISA kit (RayBio) were used to quantify phosphorylated CREB (pCREB) levels in the lysates. […] Phosphorylation levels were quantified by adding 50 μL of Stop solution and measuring the absorbance at a wavelength of 450 nm on a microplate.

RPGCGPRKPRTPKKCGSHGAAPAAPAPAAPAAPAPAAPAGRPGCGPRKPRTPKKCGSH (disulfide 4-15, 44-55) [FBP-PAS]
inhibitory activity on FGFR (relative receptor activity) [1]: higher inhibitory activity than the FBP monomer peptide

GGCADGPTLREWISFCGGAAPAAPAPGGCADGPTLREWISFCGG (disulfide 3-16, 29-42) [TPO2-PAS8]
luminescence intensity (HEL cell activation ability) compared with rhTPO ([2]; culture supernatant 1/100 to 1/10000 dilution, FIG. 42): equal to or higher than that of the 100 ng/mL rhTPO stimulation group
increase in tyrosine phosphorylation levels compared with rhTPO ([2]; culture supernatant diluted, 20 minutes, rhTPO 10 to 100 ng/mL, FIG. 41): equal to or higher than that of rhTPO
phosphorylation levels of signal proteins compared with PBS (Mock group) [3]: increased in phosphorylation levels of Erk, CREB, Stat3, Stat5a, and Stat5b

recombinant human HGF (from UniProt P14210 32-728) (ligand)
rate of wound healing of HuCCT1 cells (33 ng/mL HGF) [4]: 1.6 times

B1: rhTPO: recombinant human TPO (rhTPO, Peprotech) (protein)
chain: SPAPPACDLRVLSKLLRDSHVLHSRLSQCPEVHPLPTPVLLPAVDFSLGEWKTQMEETKAQDILGAVTLLLEGVMAARGQLGPTCLSSLLGQLSGQVRLLLGALQSLLGTQLPPQGRTTAHKDPNAIFLSFQHLLRGKVRFLMLVGGSTLCVRRAPPTTAVPSRTSLVLTLNEL
pCREB level (relative CREB phosphorylation level) [5]: 143%
phosphorylation levels of signal proteins compared with PBS (Mock group) [3]: increased in phosphorylation levels of Erk, CREB, Stat3, Stat5a, and Stat5b
